Measurements taken from US20050100540A1, “Platelet-activating factor acetylhydrolase” (priority 1993, published 2005).

How the values were obtained:
[1] = test system: OVA-induced eosinophil infiltration of the trachea; assay: Antigen-induced eosinophil recruitment to trachea; type: in vivo, mouse; details: 750 units IV before and 24 h after aerosolized OVA (group 4)
Procedure: Recombinant PAF-AH enzyme of the invention was also tested for efficacy in a model of antigen-induced eosinophil recruitment. The accumulation of eosinophils in the airway is a characteristic feature of late phase immune responses which occur in asthma, rhinitis and eczema. BALB/c mice (Charles River) were sensitized by two intraperitoneal injections consisting of 1 μg of ovalbumin (OVA) in 4 mg of aluminum hydroxide (Imject alum, Pierce Laboratories, Rockford. Ill.) given at a 2 week interval. Fourteen days following the second immunization, the sensitized mice were challenged with either aerosolized OVA or saline as a control.
Prior to challenge mice were randomly placed into four groups, with four mice/group. […] Mice in groups 2 and 4 were pretreated with 750 units of PAF-AH (activity of 5,500 units/ml given in 140 μl of PAF-AH buffer). Thirty minutes following administration of PAF-AH or buffer, mice in groups 1 and 2 were exposed to aerosolized PBS as described below, while mice in groups 3 and 4 were exposed to aerosolized OVA. Twenty-four hours later mice were treated a second time with either 140 μl of buffer (groups 1 and 3) or 750 units of PAF-AH in 140 μl of buffer (groups 2 and 4) given by intravenous injection.
Eosinophil infiltration of the trachea was induced in the sensitized mice by exposing the animals to aerosolized OVA. […]

[2] = Degradation of oxidized phospholipid by recombinant PAF-AH; type: biochemical; details: oxidized phospholipid with oxidatively cleaved sn-2 fatty acid
PAF-induced pleurisy = PAF-induced pleurisy (Evans blue vascular leakage); type: in vivo, rat; details: 300 μl PAF-AH IV 15 minutes before 2.0 nmol PAF into pleural space, 1 hour
[3] = Hydrolysis of long-chain sn-2 phospholipid by recombinant PAF-AH; type: biochemical; details: incubated with recombinant PAF-AH
Procedure: The most remarkable property of the PAF acetylhydrolase is its marked specificity for substrates with a short residue at the sn-2 position of the substrate. This strict specificity distinguishes PAF acetylhydrolase from other forms of PLA2. Thus, to determine if recombinant PAF-AH degrades phospholipids with long-chain fatty acids at the sn-2 position, hydrolysis of 1-palmitoyl-2-arachidonoyl-sn-glycero-3-phosphocholine (arachidonoylPC) was assayed since this is the preferred substrate for a well-characterized form of PLA2. […] In additional experiments, arachidonoylPC was included in a standard PAF hydrolysis assay at concentrations ranging from 0 to 125 μM to determine whether it inhibited the hydrolysis of PAF by recombinant PAF-AH. There was no inhibition of PAF hydrolysis even at the highest concentration of […], which was 5-fold greater than the concentration of PAF. […] Native plasma PAF-AH has several other properties that distinguish it from other phospholipases including calcium-independence and resistance to compounds that modify sulfhydryl groups or disrupt disulfides.

B1: PAF-AH: Recombinant human plasma platelet-activating factor acetylhydrolase (beginning at Ile42) expressed in E. coli from construct pUC trp AH (protein)
chain: IQVLMAAASFGQTKIPRGNGPYSVGCTDLMFDHTNKGTFLRLYYPSQDNDRLDTLWIPNKEYFWGLSKFLGTHWLMGNILRLLFGSMTTPANWNSPLRPGEKYPLVVFSHGLGAFRTLYSAIGIDLASHGFIVAAVEHRDRSASATYYFKDQSAAEIGDKSWLYLRTLKQEEETHIRNEQVRQRAKECSQALSLILDIDHGKPVKNALDLKFDMEQLKDSIDREKIAVIGHSFGGATVIQTLSEDQRFRCGIALDAWMFPLGDEVYSRIPQPLFFINSEYFQYPANIIKMKKCYSPDKERKMITIRGSVHQNFADFTFATGKIIGHMLKLKGDIDSNVAIDLSNKASLAFLQKHLGLHKDFDQWDCLIEGDDENLIPGTNINTTNQHIMLQNSSGIEKYN
- Eosinophils in the submucosal tissue of the trachea [1]: very few eosinophils in the submucosal tissue
- Degradation of glutaroylPC [2]: rapidly degraded
- Reduction in inflammation (vascular leakage, Evans blue) (PAF-induced pleurisy): > 80%
- Hydrolysis of arachidonoylPC [3]: not hydrolyzed
